Patent US20240301385, “DNA MODIFYING ENZYMES AND ACTIVE FRAGMENTS AND VARIANTS THEREOF AND METHODS OF USE” (LIFEEDIT THERAPEUTICS, INC., published 2024)

B1: SGN000930 sgRNA ; SGN000930 target (ssRNA ; dsDNA)
RNA: GAACAACUCAAAUGGAAAUGAAUAUGUCAUAGUUCCAUGAAAGCCAAAAGUGGCUUUGAUGUUUCUAUGAUAAGGGUUUCGGCCCGUGGCGUCGGGGAUCGCCUGCCCAUUCCGAUGGGCUUCUCCCCAUUUAUU
DNA 1: GAACAACTCAAATGGAAATGAATAT
DNA 2: ATATTCATTTCCATTTGAGTTGTTC
B2: SGN001101 sgRNA ; SGN001101 target (ssRNA ; dsDNA)
RNA: AUAUUUUCUUUAAUGGUGCCAGGCAGUCAUAGUUCCAUUAAAGCCAAAAGUGGCUUUGAUGUUUCUAUGAUAAGGGUUUCGACCCGUGGCGUCGGGGAUCGCCUGCCCAUUGAAAUGGGCUUCUCCCCAU
DNA 1: ATATTTTCTTTAATGGTGCCAGGCA
DNA 2: TGCCTGGCACCATTAAAGAAAATAT
B3: SGN000169 sgRNA ; SGN000169 target (ssRNA ; dsDNA)
RNA: CACAUCUCGAGCAAGACGUUGUCAUAGUUCCAUUAAAGCCAAAAGUGGCUUUGAUGUUUCUAUGAUAAGGGUUUCGACCCGUGGCGUCGGGGAUCGCCUGCCCAUUGAAAUGGGCUUCUCCCCAUUUAUU
DNA 1: CACATCTCGAGCAAGACGTT
DNA 2: AACGTCTTGCTCGAGATGTG

Assays:
[1] = molecular target: APG05840.1-L16-nAPG07433.1-USP2 (synthetic); test: cell_activity; HEK293FT; PAM SEQ 152; settings: tags: SV40 NLS, 3xFLAG N-term; USP2, nucleoplasmin NLS C-term
How it was run: (§1)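 Editing read out by next-generation sequencing (MiSeq 2×250) of PCR amplicons spanning the target site, analysed for INDELs or % cytosine conversion per position (position 1 nearest PAM).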

[2] = molecular target: T1, APG09980-L16-nAPG07433.1 cytosine base editor (synthetic); test: cell_activity; HEK293FT; PAM SEQ 152; settings: tags: SV40 NLS, 3xFLAG N-term; nucleoplasmin NLS C-term
T1 chain: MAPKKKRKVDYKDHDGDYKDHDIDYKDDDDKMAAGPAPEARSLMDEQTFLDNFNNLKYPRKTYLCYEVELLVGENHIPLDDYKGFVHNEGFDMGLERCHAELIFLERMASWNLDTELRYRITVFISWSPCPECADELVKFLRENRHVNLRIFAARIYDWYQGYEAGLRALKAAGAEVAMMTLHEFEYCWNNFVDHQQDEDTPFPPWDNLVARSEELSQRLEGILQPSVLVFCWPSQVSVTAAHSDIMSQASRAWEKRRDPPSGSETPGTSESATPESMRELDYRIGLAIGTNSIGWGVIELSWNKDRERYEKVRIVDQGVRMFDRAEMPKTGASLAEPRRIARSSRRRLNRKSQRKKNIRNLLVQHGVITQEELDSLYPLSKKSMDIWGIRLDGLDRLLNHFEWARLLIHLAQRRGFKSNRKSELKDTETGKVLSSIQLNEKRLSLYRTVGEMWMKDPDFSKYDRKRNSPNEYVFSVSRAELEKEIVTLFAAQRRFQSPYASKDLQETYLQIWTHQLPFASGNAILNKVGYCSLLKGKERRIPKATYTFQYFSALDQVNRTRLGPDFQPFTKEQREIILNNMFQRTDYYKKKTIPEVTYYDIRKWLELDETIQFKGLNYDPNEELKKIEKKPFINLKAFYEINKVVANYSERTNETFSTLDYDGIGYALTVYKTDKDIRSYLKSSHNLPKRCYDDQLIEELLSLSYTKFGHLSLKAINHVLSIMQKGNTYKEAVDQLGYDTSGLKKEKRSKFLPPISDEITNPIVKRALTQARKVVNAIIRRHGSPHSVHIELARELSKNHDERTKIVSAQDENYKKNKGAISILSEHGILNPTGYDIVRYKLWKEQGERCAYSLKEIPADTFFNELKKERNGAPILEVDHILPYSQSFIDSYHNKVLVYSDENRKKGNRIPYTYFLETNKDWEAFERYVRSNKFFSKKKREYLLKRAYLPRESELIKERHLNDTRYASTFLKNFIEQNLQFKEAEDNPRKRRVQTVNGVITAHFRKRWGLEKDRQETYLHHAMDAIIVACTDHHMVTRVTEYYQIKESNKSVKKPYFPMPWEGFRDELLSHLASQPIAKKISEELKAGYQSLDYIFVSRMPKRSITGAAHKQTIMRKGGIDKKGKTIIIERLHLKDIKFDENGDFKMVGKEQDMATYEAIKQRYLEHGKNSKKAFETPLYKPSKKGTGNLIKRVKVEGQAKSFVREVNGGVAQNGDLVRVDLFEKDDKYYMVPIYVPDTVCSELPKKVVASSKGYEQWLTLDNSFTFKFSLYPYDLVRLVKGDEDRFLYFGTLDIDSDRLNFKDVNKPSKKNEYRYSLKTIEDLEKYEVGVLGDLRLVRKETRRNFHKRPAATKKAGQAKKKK
How it was run: as §1

Row | Binder | activity [1] [% mutated reads] | activity [2] [% mutated reads]
1 | B1 | 13.1 | 25.2
2 | B2 | 12.7 | 
3 | B3 |  | 24.8
